# Experimental data reported in publication PMC7708078, “How to limit the speed of a motor: the intricate regulation of the XPB ATPase and translocase in TFIIH” (Nucleic Acids Research, 2020).
# Columns and labels:
# [1] = target: ctXPB (from E. coli) (Chaetomium thermophilum)
# [2] = target: ctXPB (from E. coli) (Chaetomium thermophilum); remark: listed apart in the source
# [3] = target: ctXPB (from E. coli) (Chaetomium thermophilum); remark: listed apart in the source
# [4] = test system: ctXPB (Chaetomium thermophilum); experiment: fluorescence polarization; conditions: 20 mM HEPES pH 7.5, 10 mM KCl, 2.5 mM MgCl2, 1 mM TCEP, 6 nM DNA, room temperature
# [5] = test system: ctXPB;ctp52;ctp8 (Chaetomium thermophilum;Chaetomium thermophilum;Chaetomium thermophilum); experiment: fluorescence polarization; conditions: ctp52/ctp8 2:1 to ctXPB; Kd in nM XPB; 2.5 mM MgCl2, no ATP stated; 20 mM HEPES pH 7.5, 10 mM KCl, 2.5 mM MgCl2, 1 mM TCEP, 6 nM DNA, room temperature
Substance,"activation of ctXPB's ATPase by the ctp52/ctp8 variant, percent of wild type ctp52/ctp8 (% of wild type) [1]",other results
ctp52_Y365A/ctp8 complex,53,–
ctp52_M390E/ctp8 complex,57,–
ctp52_R386L/ctp8 complex,116,–
ctp52_E359K/ctp8 complex,5,–
ctp52_F387K/ctp8 complex,46,–
"ctp52/ctp8 complex (wild type, co-purified)",–,ATPase activity of ctXPB on titration of the co-purified ctp52/ctp8 complex to a fixed amount of ctXPB (full activation 20.1 μmol ATP*l^−1*min^−1); EC50 [2]: 153 nM; decrease of the dsDNA-activated ATPase activity of ctXPB (from 58.8 to 18.9 μmol ATP*l^−1*min^−1) on titration of ctp52/ctp8 to an equimolar ctXPB/DNA complex; EC50 [3]: 138 nM
ctp52 (natural protein),–,ATPase activity of ctXPB on titration of the co-purified ctp52/ctp34 complex to a fixed amount of ctXPB (Vmax 9.3 μmol ATP*l^−1*min^−1); EC50 [2]: 178 nM
AGCTACCATGCCTGCACGAATTAAGCAATTCGTAATCATGGTCATAGC (double strand) [Cy3-dsDNA 48 bp],–,Kd [4]: 77 nM; Kd [5]: 51 nM

# Now from value to substance, other results behind:
"activation of ctXPB's ATPase by the ctp52/ctp8 variant, percent of wild type ctp52/ctp8 (% of wild type) [1]",Substance,other results
6,ctp52_E359K/R363E / ctp8 complex,–
134,ctp52_R363E/ctp8 complex,–
